Experimental data from US20170058005A1 (priority 2014, published 2017).
Entries after “also recorded” stand apart in the source; their conditions may differ.

Key:
human PBMCs = type: cell-based
DRB1*0301 (DR3) = DRB1*0301 (DR3) (Homo sapiens, UniProt P01903+P01911, A100K/A102G/A103R/A169T/F55Y/I96L/K41T/L162R/M171V/P40S/Q125H/Q178H/Q39Y/R42S/S66N/T106N/T262R/W38E/Y61H); type: binding
DRB1*1301 (DR13) = DRB1*1301 (DR13) (Homo sapiens, UniProt P01903+P01911, A100E/A169T/K41T/L162R/M171V/P40S/Q125H/Q178H/Q39Y/Q99D/R42S/S66N/T262R/W38E/Y61H); type: binding
HLA-DR molecules = type: binding, human
DRB1*0101 (DR1) = DRB1*0101 (DR1) (Homo sapiens, UniProt P01903+P01911, A100R/D57E/F55L/F60I/F76Y/I96L/L162R/M171V/P40L/Q125E/R42F/V115G/Y59C); type: binding
DRB1*0401 (DR4) = DRB1*0401 (DR4) (Homo sapiens, UniProt P01903+P01911, A100K/A169T/F76Y/I96L/K127E/L162R/M171V/N62H/P40V/Q125Y/R42H/S133A/S149N/S66Y/V115G/V209L/W38E); type: binding
DRB1*1501 (DR15) = DRB1*1501 (DR15) (Homo sapiens, UniProt P01903+P01911); type: binding
DRB1*0701 (DR7) = DRB1*0701 (DR7) (Homo sapiens, UniProt P01903+P01911, A100R/A102G/A103Q/D57E/D86V/E43K/F76Y/K127E/L162R/M171V/P40G/Q125H/Q99D/R33Q/R42Y/R54Q/S133A/S66F/T210M/V115G/Y107V/Y59L/Y89S); type: binding
DRB1*1101 (DR11) = DRB1*1101 (DR11) (Homo sapiens, UniProt P01903+P01911, A100R/A169T/A87E/I96F/K41T/L162R/M171V/P40S/Q125H/Q178H/Q39Y/Q99D/R42S/S66Y/T262R/V115G/W38E); type: binding
[1] = test system: CD4^+ T cells of HLA class II transgenic mice; type: cell-based

## KIYLYENMNINNLTATLGAD
Human PBMCs
  T cell recognition in human cohorts: recognized by a high proportion of naturally infected donors, but not vaccinated individuals
DRB1*0301 (DR3)
  Relative binding affinity of peptide to HLA-DR molecules, DR3: 1
  Strong relative binding affinity of peptide to HLA-DR molecules, DR3: + (key: +: Strong binding affinity was defined in this study as a relative activity <10)
DRB1*1301 (DR13)
  Relative binding affinity of peptide to HLA-DR molecules, DR13: 17
HLA-DR molecules
  Binding across all HLA-DR alleles assayed: strong binding affinity across all HLA-DR alleles assayed
  Binding to HLA-DR1, DR4 and DR15: strong binders to all three HLA-DR alleles
DRB1*0101 (DR1)
  Relative binding affinity of peptide to HLA-DR molecules, DR1: 0.2
  Strong relative binding affinity of peptide to HLA-DR molecules, DR1: + (key: +: Strong binding affinity was defined in this study as a relative activity <10)
DRB1*0401 (DR4)
  Relative binding affinity of peptide to HLA-DR molecules, DR4: 0.2
  Strong relative binding affinity of peptide to HLA-DR molecules, DR4: + (key: +: Strong binding affinity was defined in this study as a relative activity <10)
DRB1*1501 (DR15)
  Relative binding affinity of peptide to HLA-DR molecules, DR15: 0.1
  Strong relative binding affinity of peptide to HLA-DR molecules, DR15: + (key: +: Strong binding affinity was defined in this study as a relative activity <10)
DRB1*0701 (DR7)
  Relative binding affinity of peptide to HLA-DR molecules, DR7: 5
  Strong relative binding affinity of peptide to HLA-DR molecules, DR7: + (key: +: Strong binding affinity was defined in this study as a relative activity <10)
DRB1*1101 (DR11)
  Relative binding affinity of peptide to HLA-DR molecules, DR11: 5
  Strong relative binding affinity of peptide to HLA-DR molecules, DR11: + (key: +: Strong binding affinity was defined in this study as a relative activity <10)
[1]
  CD4 T cell response in LF immunized HLA transgenics: recognised by all LF immunized HLA transgenics; also recorded: capable of eliciting a T cell response from all the HLA transgenics; also recorded: immunogenic in all three HLA-DR transgenic strains
  HLA-restriction based on CD4 T cell response class II HLA transgenics after priming with LF: DR1, DR4, DR15,; also recorded: DQ8, DQ6
  Peptide-specific recall response: strongest peptide recall in both groups

## HQSIGSTLYNKIYLYENMNI
DRB1*0301 (DR3)
  Relative binding affinity of peptide to HLA-DR molecules, DR3: 1
  Strong relative binding affinity of peptide to HLA-DR molecules, DR3: + (key: +: Strong binding affinity was defined in this study as a relative activity <10)
DRB1*1301 (DR13)
  Relative binding affinity of peptide to HLA-DR molecules, DR13: 5
  Strong relative binding affinity of peptide to HLA-DR molecules, DR13: + (key: +: Strong binding affinity was defined in this study as a relative activity <10)
HLA-DR molecules
  Binding across all HLA-DR alleles assayed: strong to moderate binding across all seven HLA-DR alleles
DRB1*0101 (DR1)
  Relative binding affinity of peptide to HLA-DR molecules, DR1: 115
DRB1*0401 (DR4)
  Relative binding affinity of peptide to HLA-DR molecules, DR4: 55
DRB1*1501 (DR15)
  Relative binding affinity of peptide to HLA-DR molecules, DR15: 0.02
  Strong relative binding affinity of peptide to HLA-DR molecules, DR15: + (key: +: Strong binding affinity was defined in this study as a relative activity <10)
DRB1*0701 (DR7)
  Relative binding affinity of peptide to HLA-DR molecules, DR7: 3
  Strong relative binding affinity of peptide to HLA-DR molecules, DR7: + (key: +: Strong binding affinity was defined in this study as a relative activity <10)
DRB1*1101 (DR11)
  Relative binding affinity of peptide to HLA-DR molecules, DR11: 44
[1]
  CD4 T cell response in LF immunized HLA transgenics: recognised by all LF immunized HLA transgenics; also recorded: immunogenic in all three HLA-DR transgenic strains
  HLA-restriction based on CD4 T cell response class II HLA transgenics after priming with LF: DR1, DR4, DR15,; also recorded: DQ8, DQ6

## EQYTHQDEIYEQVHSKGLYV
DRB1*0301 (DR3)
  Relative binding affinity of peptide to HLA-DR molecules, DR3: 245
DRB1*1301 (DR13)
  Relative binding affinity of peptide to HLA-DR molecules, DR13: 15
HLA-DR molecules
  Binding across all HLA-DR alleles assayed: strong to moderate binding across all seven HLA-DR alleles
DRB1*0101 (DR1)
  Relative binding affinity of peptide to HLA-DR molecules, DR1: 1
DRB1*0401 (DR4)
  Relative binding affinity of peptide to HLA-DR molecules, DR4: 237
DRB1*1501 (DR15)
  Relative binding affinity of peptide to HLA-DR molecules, DR15: 13
DRB1*0701 (DR7)
  Relative binding affinity of peptide to HLA-DR molecules, DR7: 0
DRB1*1101 (DR11)
  Relative binding affinity of peptide to HLA-DR molecules, DR11: 35
[1]
  CD4 T cell response in LF immunized HLA transgenics: immunodominant epitope in both HLA-DR1 and HLA-DR15 transgenics
  HLA-restriction based on CD4 T cell response class II HLA transgenics after priming with LF: DRI

## QNSNEVQEVFAKAFAYYIEP
DRB1*0301 (DR3)
  Relative binding affinity of peptide to HLA-DR molecules, DR3: 173
DRB1*1301 (DR13)
  Relative binding affinity of peptide to HLA-DR molecules, DR13: 327
HLA-DR molecules
  Binding across all HLA-DR alleles assayed: strong to moderate binding across all seven HLA-DR alleles
DRB1*0101 (DR1)
  Relative binding affinity of peptide to HLA-DR molecules, DR1: 0.1
DRB1*0401 (DR4)
  Relative binding affinity of peptide to HLA-DR molecules, DR4: 137
DRB1*1501 (DR15)
  Relative binding affinity of peptide to HLA-DR molecules, DR15: 1
DRB1*0701 (DR7)
  Relative binding affinity of peptide to HLA-DR molecules, DR7: 0.4
DRB1*1101 (DR11)
  Relative binding affinity of peptide to HLA-DR molecules, DR11: 2
[1]
  HLA-restriction based on CD4 T cell response class II HLA transgenics after priming with LF: DR1

## SDVLEMYKAIGGKIYIVDGD
DRB1*0301 (DR3)
  Relative binding affinity of peptide to HLA-DR molecules, DR3: >76
DRB1*1301 (DR13)
  Relative binding affinity of peptide to HLA-DR molecules, DR13: 123
HLA-DR molecules
  Binding across all HLA-DR alleles assayed: strong to moderate binding across all seven HLA-DR alleles
DRB1*0101 (DR1)
  Relative binding affinity of peptide to HLA-DR molecules, DR1: 5
DRB1*0401 (DR4)
  Relative binding affinity of peptide to HLA-DR molecules, DR4: 305
DRB1*1501 (DR15)
  Relative binding affinity of peptide to HLA-DR molecules, DR15: 2
DRB1*0701 (DR7)
  Relative binding affinity of peptide to HLA-DR molecules, DR7: 1
DRB1*1101 (DR11)
  Relative binding affinity of peptide to HLA-DR molecules, DR11: 4
[1]
  CD4 T cell response in LF immunized HLA transgenics: HLA-DQ8 specific response
  HLA-restriction based on CD4 T cell response class II HLA transgenics after priming with LF: DQ8
